In the RNAGym collection of RNA variant scans (doi:10.7554/elife.80360):

B1: Hammerhead Ribozyme (parent)
chain: ACCGGAUGUGCUUUCCGGUCUGAUGAGUCCGUGAGGACGAAACAG

Variants of: B1
Experiment: self-cleavage, relative activity (ratio to wild type); higher = more cleavage; co-transcriptional

Variant | self-cleavage
G10A U24C | 0.932
U14A G45A | 0.765
G4A U14G | 0.542
A23U A37C | 0.381
C3U C38A | 0.577
G8A U28C | 1.36
G4C C15U | 0.557
U21C C38A | 0.711
U12A G17A | 0.77
C11U G33A | 0.95
G22U G39C | 0.316
C2U C3G | 0.319
G18A A23G | 0.361
C11A A23G | 0.371
U7G U14A | 1.46
U13A C30U | 1.46
U13A G17U | 1.02
C2A A26C | 0.328
C20A U28C | 0.487
U7C A34G | 0.863
G10U U32C | 0.694
G5A G8A | 1.24
U13G C20A | 0.374
U9A G35C | 1.05

Variant | self-cleavage
C2A G8A | 0.587
U12A U13C | 1.05
U12C G33A | 1.25
C3U G27A | 0.93
G22A G31U | 0.427
C3A A42U | 0.356
U24C A26C | 0.609
G5U C43G | 0.335
U9C U28G | 0.808
U19G U32G | 0.371
G5C C15U | 1.31
G25U G39U | 0.295
A1C U13C | 0.513
G8A U14C | 0.975
U32C G36U | 0.73
U21C A23U | 0.708
C16U U28A | 0.576
C29U G36U | 0.483
A6U A42C | 0.238
C30U C43G | 0.343
G5A A41U | 0.327
C20G A23C | 0.271
G5C U13A | 1.25
G10U C15G | 0.826

Variant | self-cleavage
A1G G17U | 1.02
U14G U32C | 0.653
U7C C30A | 0.736
U12A U21A | 0.658
C15G A26G | 0.364
C2U G31U | 1.12
G8A A44C | 0.508
U13G G22A | 0.383
C3A A37G | 0.539
U19G U24A | 0.472
A26C U28G | 0.46
G4C A26C | 0.289
C29A A34C | 0.494
A1C C11U | 0.411
U7A G25A | 0.32
U7A G25U | 0.281
U12C C16U | 0.878
G4A G17U | 0.39
U21C G35C | 0.681
C15A A37C | 0.403
U24G U28C | 0.971
U24G U28A | 0.912
C30U | 1.02
U14C A40G | 0.273

Variant | self-cleavage
G25C G33A | 0.31
U12C A26C | 0.505
U21A | 0.687
C11A G25A | 0.342
A1C G8A | 0.409
C3A G18C | 0.365
G10U A42C | 0.45
C20A G45U | 0.357
U12G U32C | 0.921
G33A A41C | 0.465
G10U A34G | 0.942
A23U A26C | 0.379
C11G G18A | 0.553
C2G C3A | 0.283
C38U A42U | 0.317
G25U C29G | 0.313
G18A G36C | 0.299
A23G U28C | 0.327
U7A C11U | 1.4
C30G A40C | 0.425
G8U | 1.02
U7G C15U | 1.26
C20G G35U | 0.353
G25U G27A | 0.34

Variant | self-cleavage
U21C G45U | 0.553
A41G A44U | 0.322
U7C G33C | 0.963
A6U C20G | 0.378
U24A U28A | 0.729
U14C G45A | 0.472
A23U A42G | 0.375
C3A C16G | 0.438
U24C C43A | 0.271
C16U U32G | 1
U7G G27U | 0.511
C16G A34U | 0.709
C16G A44C | 0.373
G5C G17C | 0.268
A6G G39U | 0.248
G5A C20U | 1.01
G31C C38A | 0.62
G22C C38A | 0.329
A23G C30A | 0.305
C15U A44G | 1.21
U28G G31C | 0.987
C11A U28G | 0.964
G5U G27U | 0.366
C16G C30U | 0.899

Variant | self-cleavage
U13A U32G | 1.3
U28A C29U | 0.774
C11A A41U | 0.273
A6C G8A | 0.783
G17A G33A | 0.794
C20G G22A | 0.252
C16G G31A | 1.16
C16G G31U | 1.05
C29A A42G | 0.265
G22C A37G | 0.416
G35C G36A | 0.504
C29U G45C | 0.443
C15U A23C | 0.36
G18C C43G | 0.358
G18C C43U | 0.292
C30U G39C | 0.319
A6U C30G | 0.525
C20A A41C | 0.388
U9A C43U | 0.337
U9A C43A | 0.333
G4A U32G | 0.436
C3U G35C | 0.625
G18U A26U | 0.368
C3A C38A | 0.315

Variant | self-cleavage
G4A G8A | 0.555
C3A G45C | 0.355
A26G C30A | 0.307
U21G G27A | 0.39
U13A C43G | 0.335
C20G A41U | 0.371
C20A G36A | 0.33
A6C C20A | 0.291
A1U G27C | 0.317
U7G U21A | 0.345
U7C U28C | 0.792
C11A C15U | 1.01
U7C G31A | 1.12
A1U U9C | 0.656
U14A U24A | 0.627
G5C A34G | 0.74
G10U G22A | 0.354
G4U U21A | 0.342
G31A U32G | 0.529
A26G C38U | 0.337
A6C U13G | 0.673
U12G G31A | 1.2
C3G U9A | 0.411
